Sequences and labels used below:
B1: FAM‐Ahx‐hDM2_(180‐192) ^pSer186 (peptide)
peptide: {FAM-Ahx}-QRKRHK[pS]DSISLS-NH2
notes: hDM2 (human double minute 2 protein), human, residues 180-192; Tracer form used in the FA assays; source: synthetic peptide (Fmoc SPPS, HPLC purified)
B2: FAM‐Ahx‐hDMX_(361‐374) ^pSer367 (peptide)
peptide: {FAM-Ahx}-DCRRTI[pS]APVVRPK-NH2
notes: Tracer form used in the FA assays; source: synthetic peptide (Fmoc SPPS, HPLC purified)
B3: FAM‐Ahx‐hDMX_(335‐349) ^pSer342 (peptide)
peptide: {FAM-Ahx}-SKLTHSL[pS]TSDITAI-NH2
notes: hDMX (human double minute 4 protein, hDM4), human, residues 335-349; Tracer form used in the FA assays; source: synthetic peptide (Fmoc SPPS, HPLC purified)
B4: FAM‐Ahx‐hDM2_(160‐171) ^pSer166 (peptide)
peptide: {FAM-Ahx}-SRRRAI[pS]ETEEN-NH2
notes: hDM2 (human double minute 2 protein), human, residues 160-171; Tracer form used in the FA assays; also called hDM2_(160‐171) ^Ser166; source: synthetic peptide (Fmoc SPPS, HPLC purified)

This is an account of results in publication PMC9541495, “Understanding the interaction of 14‐3‐3 proteins with hDMX and hDM2: a structural and biophysical study” (The Febs Journal, 2022).

[ ]: non-standard residue; d: D form. pS = N[C@@H](COP(=O)(O)O)C(=O)O; FAM = 5,6-carboxyfluorescein; Ahx = NCCCCCC(=O)O

For one assay, the target named is T1, 14‐3‐3ζ (human, UniProt P63104 1-245).
T1 construct: 14-3-3 zeta, human, full-length protein from the pProEx HTb-His-14-3-3 construct; Written as the protomer; tag removal is told only for the ∆C proteins; source: E. coli BL21(DE3), purified (Ni2+-NTA, dialysis)
T1 sequence (looked up): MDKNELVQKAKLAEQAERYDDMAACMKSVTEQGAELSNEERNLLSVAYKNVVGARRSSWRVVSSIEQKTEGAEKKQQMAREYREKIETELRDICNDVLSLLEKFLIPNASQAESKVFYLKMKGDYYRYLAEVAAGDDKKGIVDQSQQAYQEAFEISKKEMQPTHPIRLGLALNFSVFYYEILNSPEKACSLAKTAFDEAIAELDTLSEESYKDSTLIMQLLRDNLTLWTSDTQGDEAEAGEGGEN
Put plainly: fluorescence polarisation; fluorescence anisotropy, direct titration: 14-3-3 protein titrated (1/2 dilution series) against 50 nM FAM-Ahx tracer peptide; 10 mM HEPES, 150 mM NaCl, 0.1% Tween 20, 0.1% BSA, pH 7.4; 384 well plates, triplicates; protein concentration as 14-3-3 monomer; 1:1 fit, biphasic curves fitted as two separate 1:1 events (Kd1, Kd2). The settings on record: both partners purified. On the technique in general: Polarisation of emitted light reports the rotation of a fluorescent probe.
For B1, binding was put at a Kd of 166 ± 5.6 µM.
Still for that read-out and setting: in the case of B2 it was 0.92 ± 0.03 µM; in that of B3, 95.8 ± 3.6 µM; in that of B4, 19.6 ± 0.2 µM.

In another assay the target is T2, 14‐3‐3η (human, UniProt Q04917 1-246).
T2 construct: 14-3-3 eta, human, full-length protein from the pProEx HTb-His-14-3-3 construct; Captured on an NTA chip in SPR; source: E. coli BL21(DE3), purified (Ni2+-NTA, dialysis)
T2 sequence (looked up): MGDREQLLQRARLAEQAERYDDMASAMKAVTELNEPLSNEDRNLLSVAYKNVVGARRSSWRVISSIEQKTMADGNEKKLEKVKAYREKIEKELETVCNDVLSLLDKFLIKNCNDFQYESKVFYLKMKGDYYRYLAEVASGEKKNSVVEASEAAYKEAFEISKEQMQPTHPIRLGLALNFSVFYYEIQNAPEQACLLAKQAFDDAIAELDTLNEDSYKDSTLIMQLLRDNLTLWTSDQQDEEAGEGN
The assay is described as above. The settings on record: both partners purified.
As to B1, the dissociation constant (Kd) came to 31.6 ± 1.9 µM.
The same measure, in the same setting: in the case of B2 it was 0.099 ± 0.005 µM.
Still for that read-out and setting: in the case of B3 it was 20 ± 1.2 µM.
The same measure, in the same setting: for B4 the value was 10.2 ± 0.3 µM.

By Kd is commonly meant a measure of binding affinity in units of concentration. The low end stands for higher affinity, the high end for lower affinity.
